Assay results from patent publication US20240376185A1 (SMIVET B V, published 2024).

How the values were obtained:
Dog albumin [1] = target: T1, Dog albumin (dog, UniProt P49822 25-608); experiment: BLI (Octet Red96), SDA on Ni-NTA sensor, albumin as analyte
T1 construct: also called Canine albumin; Canine Alb

Cat albumin [2] = target: T2, Cat albumin (cat, UniProt P49064 25-608); experiment: as above
T2 construct: also called Feline albumin; Feline Alb

Horse albumin [3] = target: T3, Horse albumin (horse, UniProt P35747 25-607); experiment: as above
T3 construct: also called Equine albumin; Equine Alb

Swine albumin [4] = target: T4, Swine albumin (swine, UniProt P08835 25-607); experiment: as above
T4 construct: also called Porcine Alb

[5] = target: T5, tetanus neurotoxin (TeNT), authentic tetanus holotoxin (Clostridium tetani, UniProt P04958 2-1315); experiment: ELISA: directly coated TeNT, anti-his6 PO
[6] = target: T5, tetanus neurotoxin (TeNT), authentic …; experiment: ELISA: directly coated TeNT, anti-his6 PO; remark: listed apart in the source
[7] = target: T5, tetanus neurotoxin (TeNT), authentic …; experiment: GT1b-TeNT inhibition ELISA
dog albumin (dog Alb) [8] = target: T6, dog albumin (dog Alb) (dog, UniProt P49822 25-608); experiment: ELISA: coated dog Alb, anti-his6 PO
T6 construct: also called Canine albumin

[9] = target: T5, tetanus neurotoxin (TeNT), authentic …; experiment: bridging ELISA: coated TeNT, SDA, biotinylated TeNT, StrepPO (bivalent binding)
[10] = target: T5, tetanus neurotoxin (TeNT), authentic …; experiment: as above; remark: listed apart in the source
dog albumin (dog Alb) [11] = target: T6, dog albumin (dog Alb); experiment: ELISA: coated dog Alb, anti-his6 PO; remark: listed apart in the source
[12] = target: T5, tetanus neurotoxin (TeNT), authentic …; experiment: ELISA: directly coated TeNT, goat anti-llama Ig PO
[13] = target: T7, horse albumin (horse Alb) (horse, UniProt P35747 25-607); experiment: bridging ELISA: cAb-TT2-captured TeNT, SDA, biotinylated horse Alb, StrepPO
[14] = target: T5, tetanus neurotoxin (TeNT), authentic …; experiment: BLI (Octet Red96): biotinylated TeNT on SA sensor, SDA as analyte
[15] = target: T5, tetanus neurotoxin (TeNT), authentic …; experiment: ELISA: directly coated TeNT, goat anti-llama Ig PO; remark: listed apart in the source
[16] = target: T5, tetanus neurotoxin (TeNT), authentic …; experiment: GT1b-TeNT inhibition ELISA; remark: listed apart in the source
[17] = target: T7, horse albumin (horse Alb); experiment: bridging ELISA: cAb-TT2-captured TeNT, SDA, biotinylated horse Alb, StrepPO; remark: listed apart in the source
cat albumin [18] = target: T8, cat albumin (cat, UniProt P49064 25-608); experiment: ELISA on cat albumin captured from serum
T8 construct: also called Feline albumin

bovine albumin [19] = target: T9, bovine albumin (bovine, UniProt P02769 25-607); experiment: ELISA; A450 below 0.2 at highest SDA concentration
human albumin [20] = target: T10, human albumin (human, UniProt P02768 25-609); experiment: ELISA; A450 below 0.2 at highest SDA concentration
sheep albumin [21] = target: T11, sheep albumin (sheep, UniProt P14639 25-607); experiment: ELISA; A450 below 0.2 at highest SDA concentration
chicken ovalbumin [22] = target: T12, chicken ovalbumin (chicken, UniProt P01012 2-386); experiment: ELISA; A450 below 0.2 at highest SDA concentration
T12 construct: also called Chicken Alb
T12 sequence (looked up): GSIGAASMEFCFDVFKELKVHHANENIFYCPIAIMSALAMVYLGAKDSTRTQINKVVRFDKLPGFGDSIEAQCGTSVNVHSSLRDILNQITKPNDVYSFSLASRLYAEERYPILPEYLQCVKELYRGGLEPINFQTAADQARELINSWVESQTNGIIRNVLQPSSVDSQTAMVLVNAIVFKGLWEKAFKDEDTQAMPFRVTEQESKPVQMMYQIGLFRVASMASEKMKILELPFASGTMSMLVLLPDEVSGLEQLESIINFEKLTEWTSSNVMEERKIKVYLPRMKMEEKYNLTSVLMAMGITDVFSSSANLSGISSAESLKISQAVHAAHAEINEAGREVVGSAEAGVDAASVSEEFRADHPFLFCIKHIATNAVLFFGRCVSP

horse albumin [23] = target: T13, horse albumin (horse, UniProt P35747 25-607); experiment: ELISA on coated albumin
T13 construct: also called Equine albumin

bovine albumin [24] = target: T9, bovine albumin; experiment: ELISA on coated albumin
dog albumin [25] = target: T14, dog albumin (dog, UniProt P49822 25-608); experiment: ELISA on coated albumin
T14 construct: also called Canine albumin

swine albumin [26] = target: T15, swine albumin (swine, UniProt P08835 25-607); experiment: ELISA on coated albumin
T15 construct: also called Porcine albumin

mouse albumin = mouse albumin (mouse, UniProt P07724 25-608); experiment: ELISA on coated albumin
human albumin [27] = target: T10, human albumin; experiment: ELISA on coated albumin
sheep albumin [28] = target: T11, sheep albumin; experiment: ELISA on coated albumin
chicken ovalbumin [29] = target: T12, chicken ovalbumin; experiment: ELISA on coated albumin
horse serum albumin = target: T16, horse serum albumin (horse, UniProt P35747 25-607); experiment: BLI, Octet Red96
T16 construct: mature; also called horse Alb; Equine albumin

B1: SVA12L (VHH)
VHH: QVQLQESGGGLVQAGGSLRLSCAASGRTFSYYPMAWFRQAPGQEREFVAAIIGADTTYYADSLKGRFTISRDNAKNMVYLQMNSLKPEDTAVYYCAARNTYWSDVYYREGQYTNWGQGTQVTVSS
With B1 the Kd (Dog albumin [1]) was 271 nM, the koff (Dog albumin [1]) was 0.0125 s⁻¹ and the kon (Dog albumin [1]) was 45900 M⁻¹ s⁻¹. It also gave a Kd (Cat albumin [2]) of 19 nM, a koff (Cat albumin [2]) of 0.000737 s⁻¹ and a kon (Cat albumin [2]) of 38800 M⁻¹ s⁻¹. The Kd (Horse albumin [3]) was 10.7 nM, the koff (Horse albumin [3]) was 0.00109 s⁻¹ and the kon (Horse albumin [3]) was 101000 M⁻¹ s⁻¹. The Kd (Swine albumin [4]) was 159 nM, the koff (Swine albumin [4]) was 0.0238 s⁻¹ and the kon (Swine albumin [4]) was 150000 M⁻¹ s⁻¹.

B2: SVT06-GS2-SVA12M2-H6 (bispecific antibody)
chain: QVQLQESGGGSVQAGGSLRLSCTASELSYDDYTIAWFRRAAGEGRVEDGEGVASITKSYDRAYDNKINYGHSVKGRFTISRDNAKNTVYLQMTDLLPSDTAVYYCALDITPPGGVGASLTEGFLFDYWGQGTQVTVSSGGGGSGGGSEVQLVESGGGLVQAGGSLRLSCAASGRTFSYYPMAWFRQAPGQEREFVAAIIGADTTYYADSLKGRFTISRDNAKNMVYLQMNSLKPEDTAVYYCAARNTYWSDVYYREGQYTNWGQGTQVTVSSHHHHHH
For B2, the “Effective SDA Concentration at A450 0.15” value [5] was 3.5 ng/mL, the maximal absorbance value [6] was 1.59 A450 and the “Effective SDA Concentration at A450 0.56” value [7] was 55 ng/mL. For the same binder, the “Effective SDA Concentration at A450 0.2” value (dog albumin (dog Alb) [8]) was 39 ng/mL, the maximal absorbance value [9] was 0.66 A450 and the “Effective SDA Concentration at A450 0.3” value [10] was 19 ng/mL. The maximal absorbance value (dog albumin (dog Alb) [11]) was 1.67 A450, the “Effective SDA Concentration at A450 0.15” value [12] was 1.1 ng/mL and the “Effective SDA Concentration at A450 0.7” value [13] was 1.5 ng/mL. For the same binder, the Kd [14] was 0.151 nM, the koff [14] was 8.9e-05 s⁻¹ and the kon [14] was 591000 M⁻¹ s⁻¹. The maximal absorbance value [15] was 1.21 A450, the “minimal absorbance value (GT1b-TeNT inhibition)” value [16] was 0.18 A450 and the maximal absorbance value [17] was 1.47 A450.

B3: SVA06L (VHH)
VHH: QVQLQESGGRLVQAEDSLRLSCAASGRTFVSYDMGWFRQAPGKEREFVAAINWRGYTTDYVDSVKGRFFISRDIAKSTVYLQMNNLKPEDTAVYYCAARQMSGSSRYSPPGRVGYDFWGQGTQVTVSS
In the case of B3, the “maximal absorbance value at 450 nm” value (cat albumin [18]) is reported as 0.158 A450, the binding result (bovine albumin [19]) is reported as “no binding (tested: 1000 ng/ml)” and the binding result (human albumin [20]) is reported as “no binding (tested: 1000 ng/ml)”. The binding result (sheep albumin [21]) was “no binding (tested: 1000 ng/ml)”, the binding result (chicken ovalbumin [22]) was “no binding (tested: 1000 ng/ml)” and the “SDA Effective Concentration resulting in A450 nm = 0.2” value (shortened to “SDA Effective Concentration resulting”) (horse albumin [23]) was 235 ng/mL. For the same binder, the “maximal absorbance value at 450 nm” value (horse albumin [23]) was 0.483 A450, the “maximal absorbance value at 450 nm” value (bovine albumin [24]) was 0.052 A450 and the “SDA Effective Concentration resulting” value (dog albumin [25]) was 51 ng/mL. The “maximal absorbance value at 450 nm” value (dog albumin [25]) was 0.921 A450, the “SDA Effective Concentration resulting” value (swine albumin [26]) was 344 ng/mL and the “maximal absorbance value at 450 nm” value (swine albumin [26]) was 0.288 A450. The “SDA Effective Concentration resulting” value (mouse albumin) was 180 ng/mL, the “maximal absorbance value at 450 nm” value (mouse albumin) was 0.36 A450 and the “maximal absorbance value at 450 nm” value (human albumin [27]) was 0.05 A450. For the same binder, the “maximal absorbance value at 450 nm” value (sheep albumin [28]) was 0.052 A450 and the “maximal absorbance value at 450 nm” value (chicken ovalbumin [29]) was 0.054 A450.

B4: SVG13L (VHH)
VHH: QVQLQESGGGLVQPGGSLRLSCEASGFTFDDYGMSWVRQAPGKGLEWVSSLTPNGGSTYYADSVKGRFTISRDNAKNTLYLQMNSLKPEDTALYYCAKNSYYGAMDYWGKGTLVTVSS
notes: yeast-produced
B4: no binding (tested: 100 nM) (horse serum albumin).

B5: SVT16-L123Q-GS2-SVG13M4-H6 (bispecific antibody)
chain: QVQLQESGGGSVQAGDSLRLSCAASGRTISNYAMGWFRQAPGKQREFVAAISRSDNTYYTDSVKGRFTISRDNAKNTLYLQMNSLKPEETAVYYCAADPNLMYESKWKYRALEAWGQGTQVTVSSGGGGSGGGSEVQLVESGGGLVQPGGSLRLSCEASGFTFDDYGMSWVRQAPGKGLEWVSSLTPNGGSTYYADSVKGRFTISRDNAKNTLYLQMNSLKPEDTALYYCAKNSYYGAMDYWGQGTQVTVSSHHHHHH
B5: no binding (tested: 100 nM) (horse serum albumin).

B6: SVT15-3FW4M-GS2-SVA12M2-H6 (bispecific antibody)
chain: QVQLQESGGGLVQTGGSLRLSCRASGRAFANYHFGWFRQAPGKDREFVASISWKGGSTYYANFALGRFTSSVDRAESSVYLQMSGLTPEDTATYYCAAHDGGDWNYHTGMDYWGQGTQVTVSSGGGGSGGGSEVQLVESGGGLVQAGGSLRLSCAASGRTFSYYPMAWFRQAPGQEREFVAAIIGADTTYYADSLKGRFTISRDNAKNMVYLQMNSLKPEDTAVYYCAARNTYWSDVYYREGQYTNWGQGTQVTVSSHHHHHH
In the case of B6, the “Effective SDA Concentration at A450 0.15” value [5] is reported as 8 ng/mL, the maximal absorbance value [6] is reported as 1.35 A450 and the “Effective SDA Concentration at A450 0.56” value [7] is reported as 78 ng/mL. For the same binder, the “Effective SDA Concentration at A450 0.2” value (dog albumin (dog Alb) [8]) was 76 ng/mL, the maximal absorbance value [9] was 0.64 A450 and the “Effective SDA Concentration at A450 0.3” value [10] was 33 ng/mL. The maximal absorbance value (dog albumin (dog Alb) [11]) was 1.55 A450, the “Effective SDA Concentration at A450 0.15” value [12] was 2 ng/mL and the “Effective SDA Concentration at A450 0.7” value [13] was 3.9 ng/mL. The maximal absorbance value [15] was 1.36 A450, the “minimal absorbance value (GT1b-TeNT inhibition)” value [16] was 0.15 A450 and the maximal absorbance value [17] was 1.34 A450.
